Legend:
[1] = target: human TLR3 extracellular domain (amino acids 1-703) with C-terminal poly-histidine tag (human); experiment: ELISA, coated huTLR3 ECD
[2] = target: human TLR3 extracellular domain (amino acids 1-703) with C-terminal poly-histidine tag (human); experiment: Biacore (data not shown)
[3] = target: full-length murine TLR3 (mouse)

B1: mAb 4 (antibody, V domains shown)
VH: QVELQQSGPGLVKPSQTLSLTCAISGDSVSTRSAAWGWIRQSPGRGLEWLGKISYRSRWYNDYAVSVKSRITINPDTSKNQFSLQLNSVTPEDTAVYYCARHTYPYLSFDVWGQGTLVTVSS
VL: DIELTQPPSVSVAPGQTARISCSGDALGGYFVSWYQQKPGQAPVLVIYDDDNRPSGIPERFSGSNSGNTATLTISGTQAEDEADYYCASYDGDEFTVFGGGTKLTVL
EC50 [1]: 0.0128 µg/mL
Kd [2]: < 10 nM

B2: mAb 5 (antibody, V domains shown)
VH: QVELQQSGPGLVKPSQTLSLTCAISGDSVSTRSAAWGWIRQSPGRGLEWLGRIYMRSKWYNDYAVSVKSRITINPDTSKNQFSLQLNSVTPEDTAVYYCARHTYPYLSFDVWGQGTLVTVSS
VL: DIELTQPPSVSVAPGQTARISCSGDALGGYFVSWYQQKPGQAPVLVIYDDDNRPSGIPERFSGSNSGNTATLTISGTQAEDEADYYCQSYDEDSATVFGGGTKLTVL
EC50 [1]: 0.0199 µg/mL
Kd [2]: < 10 nM

B3: mAb 6 (antibody, V domains shown)
VH: QVELQQSGPGLVKPSQTLSLTCAISGDSVSTRSAAWGWIRQSPGRGLEWLGRIYMRSKWYNDYAVSVKSRITINPDTSKNQFSLQLNSVTPEDTAVYYCARHTYPYLSFDVWGQGTLVTVSS
VL: DIELTQPPSVSVAPGQTARISCSGDALGGYFVSWYQQKPGQAPVLVIYDDDNRPSGIPERFSGSNSGNTATLTISGTQAEDEADYYCGSYDSNSLTVFGGGTKLTVL
EC50 [1]: 0.019 µg/mL
Kd [2]: < 10 nM

B4: mAb 7 (antibody, V domains shown)
VH: QVELQQSGPGLVKPSQTLSLTCAISGDSVSTRSAAWGWIRQSPGRGLEWLGRIYMRSKWYNDYAVSVKSRITINPDTSKNQFSLQLNSVTPEDTAVYYCARHTYPYLSFDVWGQGTLVTVSS
VL: DIELTQPPSVSVAPGQTARISCSGDALGGYFVSWYQQKPGQAPVLVIYDDDNRPSGIPERFSGSNSGNTATLTISGTQAEDEADYYCSSYDSDSLTVFGGGTKLTVL
EC50 [1]: 0.0161 µg/mL
Kd [2]: < 10 nM

B5: mAb 8 (antibody, V domains shown)
VH: QVELQQSGPGLVKPSQTLSLTCAISGDSVSSNSAAWGWIRQSPGRGLEWLGIIQTRSKWYNDYAVSVKSRITINPDTSKNQFSLQLNSVTPEDTAVYYCARYSYPFYSIDYWGQGTLVTVSS
VL: DIELTQPPSVSVAPGQTARISCSGDNIGSYYVHWYQQKPGQAPVLVIYEDSERPSGIPERFSGSNSGNTATLTISGTQAEDEADYYCQSYDSQFSFGVFGGGTKLTVL
EC50 [1]: 0.0186 µg/mL
Kd [2]: < 10 nM

B6: mAb 9 (antibody, V domains shown)
VH: QVELQQSGPGLVKPSQTLSLTCAISGDSVSSNSAAWGWIRQSPGRGLEWLGIIQIRSKWYNDYALSVKSRITINPDTSKNQFSLQLNSVTPEDTAVYYCARYSYPFYSIDYWGQGTLVTVSS
VL: DIELTQPPSVSVAPGQTARISCSGDNIGSYYVHWYQQKPGQAPVLVIYEDSERPSGIPERFSGSNSGNTATLTISGTQAEDEADYYCQSYDSQFSFGVFGGGTKLTVL
EC50 [1]: 0.0226 µg/mL
Kd [2]: < 10 nM

B7: mAb 10 (antibody, V domains shown)
VH: QVELQQSGPGLVKPSQTLSLTCAISGDSVSSNSAAWGWIRQSPGRGLEWLGIIQKRSKWYNNYAVSVKSRITINPDTSKNQFSLQLNSVTPEDTAVYYCARYSYPFYSIDYWGQGTLVTVSS
VL: DIELTQPPSVSVAPGQTARISCSGDNIGSYYVHWYQQKPGQAPVLVIYEDSERPSGIPERFSGSNSGNTATLTISGTQAEDEADYYCQSYDTPVYSVFGGGTKLTVL
EC50 [1]: 0.0158 µg/mL
Kd [2]: < 10 nM

B8: mAb 11 (antibody, V domains shown)
VH: QVELQQSGPGLVKPSQTLSLTCAISGDSVSSNSAAWGWIRQSPGRGLEWLGIIQKRSKWYNNYAVSVKSRITINPDTSKNQFSLQLNSVTPEDTAVYYCARYSYPFYSIDYWGQGTLVTVSS
VL: DIELTQPPSVSVAPGQTARISCSGDNIGSYYVHWYQQKPGQAPVLVIYEDSERPSGIPERFSGSNSGNTATLTISGTQAEDEADYYCSSYDEPNFNVFGGGTKLTVL
EC50 [1]: 0.0263 µg/mL
Kd [2]: < 10 nM

B9: mAb 12 (antibody, V domains shown)
V domain 1: QVELQQSGPGLVKPSQTLSLTCAISGDSVSSNSAAWGWIRQSPGRGLEWLGIIQKRSKWYNNYAVSVKSRITINPDTSKNQFSLQLNSVTPEDTAVYYCARYSYPFYSIDYWGQGTLVTVSS
V domain 2: DIELQQSGPGLVKPSQTLSLTCAISGDSVSSNSAAWGWIRQSPGRGLEWLGIIQKRSKWYNNYAVSVKSRITINPDTSKNQFSLQLNSVTPEDTAVYYCARYSYPFYSIDYWGQGTLVTVSS
EC50 [1]: 0.0256 µg/mL
Kd [2]: < 10 nM

B10: mAb c1811 (antibody, V domains shown)
VH: EVQLVASGGGLVKPGASLKLSCVASGFTFSDYWMAWVRQTPGKPMEYIGDIKSDGSKVNYAPSLKNRFTISRDNARTTLYLQMSNVRSEDTATYYCNRDIGPDWYFDFWGPGTMVTVSS
VL: DIQMTQSPTSLSASLGETVTIECRASEDIYNGLAWYQQKPGKSPQLLIYDSNSLHTGVPSRFSGRGSGTQYSLRINSLQSEDVASYFCQQYYDYPLTFGSGTKLEIKR
IC50, poly(I:C)-induced ISRE luciferase reporter [3]: 0.7 µg/mL

B11: mAb 13 (antibody, V domains shown)
VH: QVELVQSGAEVKKPGESLKISCKGSGYSFTNYWVGWVRQMPGKGLEWMGFIDPSDSYTNYAPSFQGQVTISADKSISTAYLQWSSLKASDTAMYYCARELYQGYMDTFDSWGQGTLVTVSS
VL: DIQMTQSPSSLSASVGDRVTITCRASQSIGLYLAWYQQKPGKAPKLLIYAASSLQSGVPSRFSGSGSGTDFTLTISSLQPEDFATYYCQQGESILSTFGQGTKVEIK
EC50 [1]: 0.0235 µg/mL
Kd [2]: < 10 nM

B12: mAb 14 (antibody, V domains shown)
VH: QVELVQSGAEVKKPGESLKISCKGSGYSFTNYWVGWVRQMPGKGLEWMGFIDPSDSYTNYAPSFQGQVTISADKSISTAYLQWSSLKASDTAMYYCARELYQGYMDTFDSWGQGTLVTVSS
VL: DIQMTQSPSSLSASVGDRVTITCRASQSIGLYLAWYQQKPGKAPKLLIYAASSLQSGVPSRFSGSGSGTDFTLTISSLQPEDFATYYCQQAETVSPTFGQGTKVEIKR
EC50 [1]: 0.0336 µg/mL
Kd [2]: < 10 nM

B13: mAb 16 (antibody, V domains shown)
VH: QVELVQSGAEVKKPGESLKISCKGSGYSFNNYWIGWVRQMPGKGLEWMGIIDPGDSYTNYAPSFQGQVTISADKSISTAYLQWSSLKASDTAMYYCARNIYEFDYWGQGTLVTVSS
VL: DIQMTQSPSSLSASVGDRVTITCRASQGISSWLNWYQQKPGKAPKLLIYGASNLQSGVPSRFSGSGSGTDFTLTISSLQPEDFAVYYCQQYDDFSITFGQGTKVEIK
EC50 [1]: 0.0437 µg/mL
Kd [2]: < 10 nM

B14: mAb 17 (antibody, V domains shown)
VH: QVELQQSGPGLVKPSQTLSLTCAISGDSVSTRSAAWGWIRQSPGRGLEWLGRIYMRSKWYNDYAVSVKSRITINPDTSKNQFSLQLNSVTPEDTAVYYCARHTYPYLSFDVWGQGTLVTVSS
VL: DIELTQPPSVSVAPGQTARISCSGDALGGYFVSWYQQKPGQAPVLVIYDDDNRPSGIPERFSGSNSGNTATLTISGTQAEDEADYYCASYDGDEFTVFGGGTKLTVL
EC50 [1]: 0.0138 µg/mL
Kd [2]: < 10 nM

B15: mAb 18 (antibody, V domains shown)
VH: QVELQQSGPGLVKPSQTLSLTCAISGDSVSSNSAAWGWIRQSPGRGLEWLGIIQKRSKWYNNYAVSVKSRITINPDTSKNQFSLQLNSVTPEDTAVYYCARYSYPFYSIDYWGQGTLVTVSS
VL: DIELTQPPSVSVAPGQTARISCSGDNIGSYYVHWYQQKPGQAPVLVIYEDSERPSGIPERFSGSNSGNTATLTISGTQAEDEADYYCQSYDSQFSFGVFGGGTKLTVL
EC50 [1]: 0.00968 µg/mL
Kd [2]: < 10 nM

B16: mAb 19 (antibody, V domains shown)
VH: QVELVQSGAEVKKPGESLKISCKGSGYSFTNYWVGWVRQMPGKGLEWMGFIDPSDSYTNYAPSFQGQVTISADKSISTAYLQWSSLKASDTAMYYCARELYQGYMDTFDSWGQGTLVTVSS
VL: DIQMTQSPSSLSASVGDRVTITCRASQSIGLYLAWYQQKPGKAPKLLIYAASSLQSGVPSRFSGSGSGTDFTLTISSLQPEDFATYYCQQYGSVSITFGQGTKVEIK
EC50 [1]: 0.0665 µg/mL
Kd [2]: < 10 nM

B17: mAb 1 (antibody, V domains shown)
V domain 1: GVELVQSGAEVKKPGESLKISCKGSGYSFTDNWISWVRQAPGKGLEWMGVIDPSDSYTNYAPSFQGQVTISADKSISTAYLQWSSLKASDTAMYYCAREWGIGGMVDIWG
V domain 2: DIVLTQSPATLSLSPGERATLSCRASQYIDISYLAWYQQKPGQAPRLLIYDASSRATGVPARFSGSGSGTDFTLTISSLEPEDFAVYYCQQYYSLSITFGQGTKVEIK
EC50 [1]: 0.0172 µg/mL
Kd [2]: < 10 nM

B18: mAb 2 (antibody, V domains shown)
VH: QVELVQSGAEVKKPGESLKISCKGSGYSFNNYWIGWVRQMPGKGLEWMGIIDPQDSWTNYAPSFQGQVTISADKSISTAYLQWSSLKASDTAMYYCARNIYEFDYWGQGTLVTVSS
VL: DIQMTQSPSSLSASVGDRVTITCRASQGISSWLNWYQQKPGKAPKLLIYGASNLQSGVPSRFSGSGSGTDFTLTISSLQPEDFAVYYCQQYDDFSITFGQGTKVEIK
EC50 [1]: 0.0531 µg/mL
Kd [2]: < 10 nM

B19: mAb 3 (antibody, V domains shown)
VH: QVELQQSGPGLVKPSQTLSLTCAISGDSVSTRSAAWGWIRQSPGRGLEWLGRIHRRSKWYNDYAVSVKSRITINPDTSKNQFSLQLNSVTPEDTAVYYCARHTYPYLSFDVWGQGTLVTVSS
VL: DIELTQPPSVSVAPGQTARISCSGDALGGYFVSWYQQKPGQAPVLVIYDDDNRPSGIPERFSGSNSGNTATLTISGTQAEDEADYYCASYDGDEFTVFGGGTKLTVL
EC50 [1]: 0.0234 µg/mL
Kd [2]: < 10 nM
